In patent US20250110130:

MMP2, sequence (P08253 110-660): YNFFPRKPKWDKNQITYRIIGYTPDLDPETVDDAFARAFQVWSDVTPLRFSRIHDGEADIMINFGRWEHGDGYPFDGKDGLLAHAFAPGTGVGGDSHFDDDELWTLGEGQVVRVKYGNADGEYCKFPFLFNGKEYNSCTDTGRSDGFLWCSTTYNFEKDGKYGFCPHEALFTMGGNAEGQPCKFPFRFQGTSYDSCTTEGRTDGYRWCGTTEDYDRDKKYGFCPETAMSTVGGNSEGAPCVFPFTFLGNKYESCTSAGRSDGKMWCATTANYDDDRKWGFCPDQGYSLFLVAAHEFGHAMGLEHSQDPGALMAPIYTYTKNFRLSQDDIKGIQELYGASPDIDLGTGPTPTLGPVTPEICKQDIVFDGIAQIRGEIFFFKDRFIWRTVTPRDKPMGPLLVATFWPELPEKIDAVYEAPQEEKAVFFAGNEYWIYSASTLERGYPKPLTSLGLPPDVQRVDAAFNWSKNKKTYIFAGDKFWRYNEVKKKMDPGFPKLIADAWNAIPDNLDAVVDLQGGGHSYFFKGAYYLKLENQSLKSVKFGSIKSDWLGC
MMP1, sequence (P03956 100-469): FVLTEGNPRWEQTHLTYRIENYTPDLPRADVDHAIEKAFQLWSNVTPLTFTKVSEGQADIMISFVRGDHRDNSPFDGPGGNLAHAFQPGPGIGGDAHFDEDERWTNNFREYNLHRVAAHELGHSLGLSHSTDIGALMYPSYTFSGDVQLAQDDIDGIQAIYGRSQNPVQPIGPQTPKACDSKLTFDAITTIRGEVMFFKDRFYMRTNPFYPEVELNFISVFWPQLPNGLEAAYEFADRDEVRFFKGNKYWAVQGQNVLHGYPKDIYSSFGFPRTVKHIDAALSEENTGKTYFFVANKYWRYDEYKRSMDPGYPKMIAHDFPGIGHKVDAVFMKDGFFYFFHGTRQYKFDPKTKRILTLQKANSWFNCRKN
MMP20, sequence (O60882 108-483): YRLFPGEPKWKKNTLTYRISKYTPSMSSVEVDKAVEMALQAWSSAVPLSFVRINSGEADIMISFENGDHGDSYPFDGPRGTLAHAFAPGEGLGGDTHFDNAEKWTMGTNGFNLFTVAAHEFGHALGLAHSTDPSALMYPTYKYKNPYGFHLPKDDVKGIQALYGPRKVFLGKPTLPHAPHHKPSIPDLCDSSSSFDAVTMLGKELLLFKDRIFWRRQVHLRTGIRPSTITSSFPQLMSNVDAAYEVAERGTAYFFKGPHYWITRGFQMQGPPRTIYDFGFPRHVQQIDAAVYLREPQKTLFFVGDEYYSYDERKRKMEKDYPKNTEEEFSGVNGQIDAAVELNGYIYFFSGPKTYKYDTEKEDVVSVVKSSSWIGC

Substance | fluorescence read of probe cleavage, recombinant protease assay (Probe #554) | fluorescence read of probe cleavage, recombinant protease assay (Probe #417) | also measured
DPP4 | Probe #554 sensed MMP1, MMP2, MMP13, MMP14, and DPP4 (FIG. 55F) |  | fluorescence read of probe cleavage, recombinant protease assay (Probe #411): Probe #411 sensed DPP4 (FIG. 55B); fluorescence read of probe cleavage, recombinant protease assay (Probe #349): Probe #349 sensed MMP2 and DPP4 (FIG. 55A); fluorescence read of probe cleavage, recombinant protease assay (Probe #387): Probe #387 sensed DPP4 (FIG. 55G)
MMP1 | Probe #554 sensed MMP1, MMP2, MMP13, MMP14, and DPP4 (FIG. 55F) | Probe #417 sensed MMP1, MMP2, MMP8, MMP13, and MMP14 (FIG. 55C) | 
MMP2 | Probe #554 sensed MMP1, MMP2, MMP13, MMP14, and DPP4 (FIG. 55F) | Probe #417 sensed MMP1, MMP2, MMP8, MMP13, and MMP14 (FIG. 55C) | fluorescence read of probe cleavage, recombinant protease assay (Probe #349): Probe #349 sensed MMP2 and DPP4 (FIG. 55A); fluorescence read of probe cleavage, recombinant protease assay (Probe #117): Probe #117 sensed MMP2 and MMP20 (FIG. 55D)
MMP8 |  | Probe #417 sensed MMP1, MMP2, MMP8, MMP13, and MMP14 (FIG. 55C) | 
MMP13 | Probe #554 sensed MMP1, MMP2, MMP13, MMP14, and DPP4 (FIG. 55F) | Probe #417 sensed MMP1, MMP2, MMP8, MMP13, and MMP14 (FIG. 55C) | fluorescence read of probe cleavage, recombinant protease assay (Probe #263): Probe #263 sensed MMP13 (FIG. 55E)
MMP14 | Probe #554 sensed MMP1, MMP2, MMP13, MMP14, and DPP4 (FIG. 55F) | Probe #417 sensed MMP1, MMP2, MMP8, MMP13, and MMP14 (FIG. 55C) | 
MMP20 |  |  | fluorescence read of probe cleavage, recombinant protease assay (Probe #117): Probe #117 sensed MMP2 and MMP20 (FIG. 55D)
